{
  "source": "paper PMC9914670",
  "origin": "cited, not measured here",
  "key": {"[1]": {"target": "ATP5A1/5B complex (Homo sapiens) (UniProt P25705)", "sequence (P25705 44-553, chain 1 of 2)": "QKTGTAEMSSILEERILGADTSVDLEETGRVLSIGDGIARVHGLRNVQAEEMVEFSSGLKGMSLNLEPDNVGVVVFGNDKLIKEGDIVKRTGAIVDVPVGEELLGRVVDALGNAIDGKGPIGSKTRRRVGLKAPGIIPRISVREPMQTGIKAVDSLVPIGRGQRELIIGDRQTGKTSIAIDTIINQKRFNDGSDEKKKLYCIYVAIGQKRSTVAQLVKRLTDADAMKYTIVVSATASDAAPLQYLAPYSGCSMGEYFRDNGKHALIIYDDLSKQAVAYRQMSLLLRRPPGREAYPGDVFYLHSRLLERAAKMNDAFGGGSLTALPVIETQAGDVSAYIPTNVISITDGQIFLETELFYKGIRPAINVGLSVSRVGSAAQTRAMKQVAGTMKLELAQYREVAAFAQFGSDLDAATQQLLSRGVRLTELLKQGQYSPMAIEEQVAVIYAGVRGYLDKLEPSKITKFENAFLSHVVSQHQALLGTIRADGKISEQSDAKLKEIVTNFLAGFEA", "sequence (P06576 48-529, chain 2 of 2, further chain)": "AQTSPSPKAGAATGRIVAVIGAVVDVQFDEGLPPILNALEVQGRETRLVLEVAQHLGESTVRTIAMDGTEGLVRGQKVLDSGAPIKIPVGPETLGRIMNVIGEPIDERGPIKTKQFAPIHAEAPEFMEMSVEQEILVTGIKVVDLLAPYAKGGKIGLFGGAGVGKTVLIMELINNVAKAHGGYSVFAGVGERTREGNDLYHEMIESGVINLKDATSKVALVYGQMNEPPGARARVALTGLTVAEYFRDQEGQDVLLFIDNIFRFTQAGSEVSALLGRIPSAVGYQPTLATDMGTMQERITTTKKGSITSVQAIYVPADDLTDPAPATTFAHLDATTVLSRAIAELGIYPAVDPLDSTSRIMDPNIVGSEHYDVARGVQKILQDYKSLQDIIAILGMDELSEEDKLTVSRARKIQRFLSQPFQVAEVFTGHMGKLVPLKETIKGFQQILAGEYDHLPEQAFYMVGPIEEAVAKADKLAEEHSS", "assay": "QCM"}, "[2]": {"target": "TLR4/MD2 complex (Homo sapiens) (UniProt O00206)", "sequence (O00206 24-839, chain 1 of 2)": "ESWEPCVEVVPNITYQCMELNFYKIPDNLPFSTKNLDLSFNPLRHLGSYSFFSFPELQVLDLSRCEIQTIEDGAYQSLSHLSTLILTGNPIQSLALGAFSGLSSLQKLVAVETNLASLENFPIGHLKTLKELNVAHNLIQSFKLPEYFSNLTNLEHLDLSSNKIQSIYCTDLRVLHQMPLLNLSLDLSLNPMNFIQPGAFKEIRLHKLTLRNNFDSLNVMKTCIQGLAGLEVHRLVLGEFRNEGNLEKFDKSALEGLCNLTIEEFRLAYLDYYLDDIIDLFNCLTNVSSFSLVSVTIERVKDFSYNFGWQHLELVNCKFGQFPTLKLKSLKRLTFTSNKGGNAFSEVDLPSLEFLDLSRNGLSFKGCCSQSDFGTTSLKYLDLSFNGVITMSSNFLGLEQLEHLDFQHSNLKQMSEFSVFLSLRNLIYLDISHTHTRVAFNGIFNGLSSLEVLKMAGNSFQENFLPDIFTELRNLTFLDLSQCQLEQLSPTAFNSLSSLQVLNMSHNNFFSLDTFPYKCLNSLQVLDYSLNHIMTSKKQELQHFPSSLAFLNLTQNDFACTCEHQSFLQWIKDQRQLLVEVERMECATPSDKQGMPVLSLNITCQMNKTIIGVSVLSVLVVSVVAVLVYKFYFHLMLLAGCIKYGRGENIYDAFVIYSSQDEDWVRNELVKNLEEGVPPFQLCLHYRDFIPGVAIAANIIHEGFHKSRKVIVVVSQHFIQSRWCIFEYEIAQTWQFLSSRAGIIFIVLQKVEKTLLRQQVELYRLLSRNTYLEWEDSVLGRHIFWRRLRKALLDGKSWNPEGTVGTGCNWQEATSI", "sequence (Q9Y6Y9 19-160, chain 2 of 2, further chain)": "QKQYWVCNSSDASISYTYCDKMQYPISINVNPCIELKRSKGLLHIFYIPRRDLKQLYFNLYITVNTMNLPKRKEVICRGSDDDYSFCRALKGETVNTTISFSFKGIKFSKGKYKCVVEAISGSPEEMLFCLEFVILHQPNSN", "assay": "QCM"}, "[3]": {"target": "ATP5A1 (F1 ATPase alpha subunit) (Homo sapiens) (UniProt P25705)", "sequence (P25705 44-553)": "as the sequence (P25705 44-553, chain 1 of 2) above", "assay": "ELISA"}, "[4]": {"target": "ATP5A1/5B complex (Homo sapiens) (UniProt P25705)", "assay": "ELISA"}, "[5]": {"target": "ATP5B (F1 ATPase beta subunit) (Homo sapiens) (UniProt P06576)", "sequence (P06576 48-529)": "as the sequence (P06576 48-529, chain 2 of 2, further chain) above", "assay": "ELISA"}},
  "data": [
    {"substance": "Prothymosin alpha (from UniProt P06302)", "values": [
      {"measurement": "Kd", "setting": "[1]", "result": 28.1, "unit": "nM"},
      {"measurement": "Kd", "setting": "[2]", "result": 16100, "unit": "nM"},
      {"measurement": "Kd", "setting": "[3]", "result": 68, "unit": "nM"},
      {"measurement": "Kd", "setting": "[4]", "result": 55.8, "unit": "nM"},
      {"measurement": "Kd", "setting": "[5]", "result": 241, "unit": "nM"}
    ]}
  ]
}
